This passage reports kcat results from US7390643B2, “Geranyl diphosphate synthase molecules, and nucleic acid molecules encoding same” (Washington State University Research Foundation, priority 2002, dated 2008).

Substrate in this series: C=C(C)CCO[P@@](=O)(O)OP(=O)(O)O
The experiment in a line: Turnover rate of heterotetrameric Mentha GPP synthase (comparison). The series is classed as biochemical. As to conditions: other: assuming two functional active sites.

B1: Mentha GPP synthase, heterotetrameric (dimer of heterodimers) (Mentha x piperita) (protein)
chain: MSALVNPVAKWPQTIGVKDVHGGRRRRSRSTLFQSHPLRTEMPFSLYFSSPLKAPATFSVSAVYTKEGSEIRDKDPAPSTSPAFDFDGYMLRKAKSVNKALEAAVQMKEPLKIHESMRYSLLAGGKRVRPMLCIAACELVGGDESTAMPAACAVEMIHTMSLMHDDLPCMDNDDLRRGKPTNHMAFGESVAVLAGDALLSFAFEHVAAATKGAPPERIVRVLGELAVSIGSEGLVAGQVVDVCSEGMAEVGLDHLEFIHHHKTAALLQGSVVLGAILGGGKEEEVAKLRKFANCIGLLFQVVDDILDVTKSSKELGKTAGKDLVADKTTYPKLIGVEKSKEFADRLNREAQEQLLHFHPHRAAPLIALANYIAYRDN
notes: probably E. coli, C-terminal His8 tag, transit peptide deleted
Regarding B1, the kcat (in general, the number of substrate molecules converted per active site and unit of time at saturation) turned out to be 2.4 s⁻¹.
